The text below walks through data of patent publication US20030199671A1 (published 2003).

Assay [1] has as its target T1, human IgG1 (human, UniProt P01857-1 1-330 = IgG part).
T1 construct: Calbiochem; human plasma IgG1 in anisotropy studies, myeloma-derived (cat. 400120) in batch/column studies; also called hIgG1
The assay is described as follows: batch binding, immobilised ligand. As to the method:
(§1) IgG targets were diluted into 10 mM phosphate buffer containing 150 mM NaCl and 0.01% Tween 20, pH 7.2 (PBST) or 50 mM Tris buffer containing, 150 mM NaCl and 0.01% Tween-20, pH 7.5 (TBST). Batch (static) binding and elution studies were conducted in a 96-well assay filterplate (Millipore MultiScreen-HV, with 0.45 μm Durapore membrane, product no. MAHVN4510). The target was allowed to incubate with the resin for 1-1.5 hours with shaking at room temperature. Unbound target was collected by centrifugation of samples from the assay plate directly into a low-UV absorbing 96-well collection plate (Costar, product no. 3635 or Greiner, product no. 655801). The unbound target was then quantitated by reading the absorbance at 280 nm (normalized to 1 cm pathlength, 1.4 mg/ml A280 extinction coefficient) of the collection plate on a microplate spectrophotometer (Molecular Devices Corp., SPECTRAmax PLUS) against a buffer blank.
(§2) The percentage bound target was determined by subtracting the mass determined as unbound from the corresponding condition's control values (control non-filtered added directly to the collection plate and/or the negative control). The assay plate was washed (3×) with 200 μl of binding buffer by vacuum filtration followed by addition of 100 μl of various elution conditions (e.g.: 0.1 M sodium bicarbonate buffer, pH 8.5 and/or 0.1 M sodium citrate buffer, pH 4.0). After a 30-60 minute incubation with shaking at room temperature, the eluted target was collected by centrifugation of the assay plate into another collection plate and quantitated in a similar manner. Percent elution of total load was then determined to characterize elution recovery efficiency under various conditions.

Assay [2] deals with T2, human IgG2 (human, UniProt P01859-1 1-326 = IgG part).
T2 construct: Calbiochem; plasma IgG2 in anisotropy studies, myeloma-derived (cat. 400122) in batch/column studies; also called hIgG2
The assay can be described thus: batch binding, immobilised ligand. As to the method: as §1, §2

Assay [3] deals with T3, human IgG3 (human, UniProt P01860-1 1-377).
T3 construct: Calbiochem; plasma IgG3 in anisotropy studies, myeloma-derived (cat. 400124) in batch/column studies; also called hIgG3
The assay is described as follows: batch binding, immobilised ligand. On the procedure: as §1, §2

Assay [4] deals with T4, human IgG4 (human, UniProt P01861-1 1-327 = IgG part).
T4 construct: Calbiochem; plasma IgG4 in anisotropy studies, myeloma-derived (cat. 400126) in batch/column studies; also called hIgG4
The assay can be described thus: batch binding, immobilised ligand. On the procedure: as §1, §2

Assay [5] addresses T1, human IgG1. The assay is described as follows: fluorescence anisotropy; pH 7.4 PBS. As to the method:
(§3) All measurements were performed in 384 well microplates with 20 nM fluorescein-labeled peptide and various concentrations of the IgG isoform in a volume of between 10 and 20 μl using a Tecan Polarion fluorescence polarization plate reader. All binding buffers included 0.01% (v/v) Tween 20 to prevent peptide adsorption to the microplate. The binding mixture was equilibrated for 10 minutes in the microplate at 30° C. prior to performing the measurement.
On the technique in general: Fluorescence polarisation rises when a labelled molecule tumbles more slowly, as on binding a larger partner.

The target of assay [6] is T2, human IgG2. The assay is described as follows: fluorescence anisotropy; pH 7.4 PBS. As to the method: as §3
Assay [7] addresses T4, human IgG4. The assay can be described thus: fluorescence anisotropy; pH 7.4 PBS. As to the method:
as §3

Assay [8] has as its target T1, human IgG1. The assay can be described thus: fluorescence anisotropy; pH 5.7, 0 M NaCl. On the procedure: as §3
Assay [9] concerns the target T2, human IgG2. The assay is described as follows: mini-column chromatography, immobilised ligand. As to the method:
(§4) Thus, 250 μg of target (hIgG1, hIgG2, hIgG3, hIgG4, goat IgG and bovine IgG) at 0.250 mg/ml in PBST, pH 7.2 or TBST, pH 7.3 was loaded onto a 350 μl column (3×50 mm) run at 0.200 ml/min. flowrate (170 cm/hr). Flowthrough, elution and cleaning fractions were collected and assayed for total protein recovery by size-exclusion HPLC.

Assay [10] has as its target T4, human IgG4. The assay can be described thus: mini-column chromatography, immobilised ligand. On the procedure:
as §4

The target in assay [11] is T1, human IgG1. The assay is described as follows: fluorescence anisotropy; pH 5.7, 0.1 M NaCl. As to the method:
as §3

The target of assay [12] is T1, human IgG1. The assay is described as follows: fluorescence anisotropy; pH 5.7, 0.15 M NaCl. On the procedure:
as §3

The target of assay [13] is T1, human IgG1. The assay is described as follows: fluorescence anisotropy; pH 5.7, 0.15 M NaCl. As to the method:
as §3
The source holds these as a separate data set.

In assay [14] the target is T5, human IgG (unfractionated, polyclonal).
T5 construct: also called hIgG; polyclonal human IgG
The assay can be described thus: filterplate; 25 mg human IgG applied per ml resin. On the procedure: After incubation of the samples, with shaking, at room temperature for one hour, the supernatant liquid from each well, containing unbound IgG, was collected by centrifugation into the cognate well of a collection plate. The assay plate was washed three times with PBST (200 μl/wash) and bound IgG was eluted from the media samples by incubation for 30-60 minutes at room temperature in 100 μl Elution Buffer (100 mM CAPS, pH 11.5). Eluates were collected by centrifugation for analysis. Protein concentrations were determined from A₂₈₀ measurements and plotted as a function of mg human IgG bound per ml resin vs. mg human IgG applied per ml resin.
These were subsequently tested in batch filterplate format for relative static capacity, human IgG subtype and species specificity as previously described. In addition, total dynamic capacities were determined for comparison. […] The static capacity (mg IgG bound per ml resin) was measured at the 2.5 mg/ml target concentration (25 mg human IgG applied per ml resin).

Assay [15] addresses T1, human IgG1. The assay can be described thus: fluorescence anisotropy; pH 7.4 PBS, 15% ethylene glycol. On the procedure:
as §3

Assay [16] concerns the target T1, human IgG1. The assay is described as follows: fluorescence anisotropy; pH 7.4 PBS (second value, unlabelled row). As to the method: as §3

Positions of bridges follow the written chain, without caps; N, C: chain ends.

T1 sequence (P01857 other isoform, or with tags, fused parts or gaps): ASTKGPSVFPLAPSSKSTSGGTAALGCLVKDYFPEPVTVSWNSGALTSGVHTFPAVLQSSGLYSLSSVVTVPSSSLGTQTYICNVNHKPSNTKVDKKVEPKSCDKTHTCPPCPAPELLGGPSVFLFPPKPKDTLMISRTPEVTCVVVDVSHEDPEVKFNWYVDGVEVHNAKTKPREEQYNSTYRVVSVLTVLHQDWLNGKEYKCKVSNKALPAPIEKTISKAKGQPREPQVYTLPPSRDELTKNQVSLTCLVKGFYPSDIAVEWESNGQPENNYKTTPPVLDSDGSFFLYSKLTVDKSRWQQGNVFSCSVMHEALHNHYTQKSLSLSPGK
T2 sequence (P01859 other isoform, or with tags, fused parts or gaps): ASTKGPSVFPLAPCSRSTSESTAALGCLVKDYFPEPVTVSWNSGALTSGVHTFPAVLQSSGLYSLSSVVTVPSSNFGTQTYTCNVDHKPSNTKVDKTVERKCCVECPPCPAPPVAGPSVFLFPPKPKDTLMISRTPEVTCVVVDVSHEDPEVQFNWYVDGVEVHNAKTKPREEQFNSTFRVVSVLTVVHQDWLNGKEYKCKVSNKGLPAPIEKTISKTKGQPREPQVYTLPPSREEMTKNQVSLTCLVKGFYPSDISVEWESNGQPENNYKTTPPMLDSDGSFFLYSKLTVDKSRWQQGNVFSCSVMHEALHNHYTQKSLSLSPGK
T4 sequence (P01861 other isoform, or with tags, fused parts or gaps): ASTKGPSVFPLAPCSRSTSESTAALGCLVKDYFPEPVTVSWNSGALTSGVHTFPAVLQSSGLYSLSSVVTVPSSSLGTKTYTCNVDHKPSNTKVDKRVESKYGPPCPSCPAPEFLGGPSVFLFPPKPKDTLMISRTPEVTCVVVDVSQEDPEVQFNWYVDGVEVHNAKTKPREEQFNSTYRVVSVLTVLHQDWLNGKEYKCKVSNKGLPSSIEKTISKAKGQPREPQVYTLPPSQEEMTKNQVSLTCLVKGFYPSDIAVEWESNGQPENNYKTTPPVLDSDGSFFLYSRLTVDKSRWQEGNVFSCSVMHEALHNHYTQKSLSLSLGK
T3 sequence (P01860 other isoform, or with tags, fused parts or gaps): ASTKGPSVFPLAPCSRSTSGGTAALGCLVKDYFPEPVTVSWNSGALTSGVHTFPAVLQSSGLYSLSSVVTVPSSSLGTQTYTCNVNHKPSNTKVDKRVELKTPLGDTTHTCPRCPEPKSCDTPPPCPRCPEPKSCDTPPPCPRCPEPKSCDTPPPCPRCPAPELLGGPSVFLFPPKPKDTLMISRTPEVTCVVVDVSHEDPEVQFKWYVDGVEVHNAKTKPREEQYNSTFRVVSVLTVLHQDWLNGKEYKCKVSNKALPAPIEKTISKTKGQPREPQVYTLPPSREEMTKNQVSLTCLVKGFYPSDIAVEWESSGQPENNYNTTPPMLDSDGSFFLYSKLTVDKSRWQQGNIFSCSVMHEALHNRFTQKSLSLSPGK

In the case of Ac-GDDHMCVYTTWGELIWCDNHEPGPEGGGK-NH2 (disulfide 6-17 (inferred), Synthetic disulfide-cyclised peptide) [DX249], the “Bound (% of Total Load)” value was determined as 88% in assay [1], 78% in assay [2], 0% in assay [3] and 61% in assay [4]. Also, the “bdg % (of Total Load)” value in [1] is 91%; in assay [2], 92%; in assay [3], 3%; in assay [4] it was 82%. Also, the equilibrium dissociation constant (Kd) in assay [5] came out at 1400 nM; in [6], 1100 nM; in assay [7], 1900 nM; in assay [8], 74 nM; in assay [11], 970 nM; in assay [12] it was 840 nM. Further, the Kd in assay [13] worked out at 840 nM; in assay [15], 3600 nM; in assay [16], 2900 nM. Also, the binding efficiency in assay [9] and in assay [10] was above 90% in each case. The “Static Cap.” value in assay [14] worked out at 24 mg/mL.

By Kd is commonly meant a measure of binding affinity in units of concentration. High values mean lower affinity, low ones higher affinity.
